Test system: GFP mutant K8 (-2M, -1G, M1R, S2R, K3R, G4A, E5S, E6I, L7I, S65A, K79R, E90N, N149K, V163A, I167T)

Q: “mouse recombinant protein kinase A catalytic subunit (Calbiochem #539-487)” was tested. Which “apparent Km of phosphorylation, measured by 32P incorporation” value did it give?
A: an apparent Km of 9 µM

Q: What about the “estimated Km of phosphorylation, based on quenching alone” value of the same substance?
A: an estimated Km of 7.7 µM

Source: US6495664
